The values below are quoted from earlier work in patent publication US20250341526A1, “NOVEL DYES” (Quantum-Si Incorporated, priority 2024, published 2025).

Positions count from the first letter of the chain named.

The data set deals with amino acid at a terminal position of a polypeptide. The conditions noted are these: Table 2; amino acid at terminal position (phosphotyrosine also internal); inferred from literature and/or demonstrated by the inventors; cited from earlier work.

B1: PS508: amino acid recognition protein, SEQ ID NO: 136 (protein)
chain: MLCGRVFKEGETVYSCRDCAIDPTCVLCIECFQKSVHKSHRYKMHASAGGGFCDCGDLEAWKTGPCCSQHDP
modifications: Anabarilius graham
In the case of B1, the “Binding Pref.” value is listed as “K, R, H”.

B2: PS512: amino acid recognition protein, SEQ ID NO: 140 (protein, listed as Mastacembelus armatus)
chain: B1 chain with I29M, E30D, K34D, L58V, T63I, C66Y, Q69K
For the molecule B2, the “Binding Pref.” value is reported as “K, R, H”.

B3: PS510: amino acid recognition protein, SEQ ID NO: 138 (protein, listed as Camponotus floridanus)
chain: MICGRMFKMGEPTYSCRQCGMDSTCVLCVDCFKQSAHRNHKYKMGTSSGGGCCDCGDTEAWKNEPFCKIHLA
For B3, the “Binding Pref.” value is “K, R, H”.

B4: PS515: amino acid recognition protein, SEQ ID NO: 143 (protein, listed as Wasmannia auropunctata)
chain: B3 chain with R5K, M9I, Q18E, N63K, I69T, L71V, A72V
As for B4, the “Binding Pref.” value is reported as “K, R, H”.

B5: PS513: amino acid recognition protein, SEQ ID NO: 141 (protein, listed as Pyrenophora seminiperda)
chain: MPCGHIFKNGEATYRCKTCTADDTCVLCARCFDASDHEGHQVFVSVSPGNSGCCDCGDDEAWVRPVHCNIHSA
As for B5, the “Binding Pref.” value is “K, R, H”.

B6: PS509: amino acid recognition protein, SEQ ID NO: 137 (protein)
chain: MICGHGFKTGEPTYSCRDCATDPTCVLCISCFQKSPHREHRYKMSASGGGGYCDCGDPEAWKIEPFCEQHKP
modifications: Lottia gigantean
Regarding B6, the “Binding Pref.” value is “K, R, H”.

B7: PS511: amino acid recognition protein, SEQ ID NO: 139 (protein, listed as Habropoda laboriosa)
chain: MICGKVFKMGEATYSCKECGVDPTCVLCADCFKQSAHRHHKYRMGTSSGGGFCDCGDIEAWKKEPFCNTHLA
Consider B7, for which the “Binding Pref.” value is on record as “K, R, H”.

B8: PS514: amino acid recognition protein, SEQ ID NO: 142 (protein, listed as Tribolium castaneum)
chain: MVCGRVFKLGEPTYSCRECGMDNTCVLCVNCFKNSEHRFHKYKMGTSQGGGCCDCGDVEAWKKAPFCDVHIA
On to B8, for which the “Binding Pref.” value is given as “K, R, H”.

B9: PS518: amino acid recognition protein, SEQ ID NO: 146 (protein, listed as Nilaparvata lugens)
chain: MVCGRVFKMGEPSYHCRECGMDATCVLCVDCFKKSSHRNHKYKMGTSIGGGCCDCGDVEAWKTEPYCEVHIA
B9: the “Binding Pref.” value is listed as “K, R, H”.

B10: PS516: amino acid recognition protein, SEQ ID NO: 144 (protein)
chain: MLCGKVFKTGEPTYSCRDCANDPTCVLCIDCFQNGAHKNHRYKMNTSGGGGYCDCGDQEAWTSHPFCNLHSP
modifications: Crassostrea gigas
As for B10, the “Binding Pref.” value was “K, R, H”.

B11: PS507: amino acid recognition protein, SEQ ID NO: 135 (protein, listed as Sparassis crispa)
chain: MPCGHIFKKGESCFRCKDCALDDSCVLCSKCFEATDHANHNVSFFIAQQSGGCCDCGDIEAWLVPIDCPFHPV
As for B11, the “Binding Pref.” value is “K, R, H”.

B12: PS517: amino acid recognition protein, SEQ ID NO: 145 (protein)
chain: MMCGRVFKMGEPTYSCRECGVDSTCVLCVGCFQQSAHRDHKYKMGTSGGGGCCDCGDTEAWKRDPFCEIHMV
modifications: Harpegnathos saltator
Turning to B12, the “Binding Pref.” value is “K, R, H”.
